Consider five molecules from patent US20130040837, “APTAMER CELL COMPOSITIONS” (BRIGHAM AND WOMEN'S HOSPITAL, INC., published 2013).

Data set [1] addresses T1, L-selectin (UniProt P14151 P14151:39-332).
T1 sequence: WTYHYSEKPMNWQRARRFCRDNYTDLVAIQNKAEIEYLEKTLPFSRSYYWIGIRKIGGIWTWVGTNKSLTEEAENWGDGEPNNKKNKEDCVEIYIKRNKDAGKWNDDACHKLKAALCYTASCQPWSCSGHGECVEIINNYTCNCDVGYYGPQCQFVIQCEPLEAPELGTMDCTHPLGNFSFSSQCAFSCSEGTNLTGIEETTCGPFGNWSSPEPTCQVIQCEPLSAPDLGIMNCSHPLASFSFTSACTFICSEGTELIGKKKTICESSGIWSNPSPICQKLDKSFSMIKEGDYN
The experiment in a line: static adhesion normalised to L-Aptamer-MSC; PBS-MSC background 6.4±1.78. As to conditions: tags: coated on surface; label: 3'-biotin. Here is the method: After we confirmed the successful conjugation and the availability of aptamers on the MSC surface, we investigated the interactions between L-Aptamer-MSCs and L-selectin coated surfaces under both static and flow conditions. For the static adhesion assay, aptamer modified and unmodified MSCs were incubated with L-selectin coated surfaces for 10 minutes, and unbound cells were then removed through rinsing.

Data set [2] has as its target T2, PDGF-BB (platelet-derived growth factor) (UniProt P01127 P01127:82-190). Description: fluorescence quenching by flow cytometry on beads and MSCs, 10 nM PDGF; detection range several hundred pM to low nM on cells in PBS; best in PBS, then PBS with 0.9 mM CaCl2 and 0.5 mM MgCl2, then medium. As to conditions: chain copies: 2 (inferred); label: 5'-FAM; complementary strand 5'-biotin, 3'-dabcyl. Here is the method: FIGS. 11C-11D are bar graphs depicting the performance of sensors 1 and 2 immobilized on streptavidin beads for detection of PDGF in PBS (11C) and PBS with 0.9 mM CaCl₂ and 0.5 mM MgCl₂ (11D) were studied by flow cytometry. Upon adding PDGF (10 nM), the FAM green signal is quenched. Sensor 2 functions better than sensor 1 in PBS with and without Ca/Mg.
A PDGF aptamer sensor was synthesized with FAM at the 5′ end of the aptamer and a quencher, dabcyl, at the 3′ end of the complementary strand, with a biotin molecule attached at the other end (FIG. 11A). Upon binding to the target PDGF, the aptamer undergoes a conformational change which brings FAM and dabcyl closer to each other and the fluorescence of FAM is quenched. One base pair C-G of the aptamer sensor was eliminated by changing a C base to A base (FIG. 11B). Therefore, sensor 2 has less nonspecific folding and better performance in the presence of divalent metal ions than sensor 1. Sensor 1 and 2 were immobilized on streptavidin beads, and their performances in PBS (FIG. 11C) and PBS with Ca/Mg (FIG. 11D) were studied by flow cytometry and microscopy (FIGS. 12A-12B). Upon adding PDGF (10 nM), the FAM green signal was quenched. Sensor 2 functioned better than sensor 1 in PBS with and without Ca/Mg.

Another data set concerns the target P-selectin (UniProt P16109 P16109:42-771). Description: specificity control, static adhesion normalised to L-Aptamer-MSC on L-selectin. As to conditions: tags: P-selectin-Fc, coated on surface; chain copies: 2; label: 5'-biotin.
Data set [3] deals with T1, L-selectin. Description: specificity control, P-Aptamer-MSC on L-selectin. As to conditions: tags: coated on surface; label: 5'-biotin.
Data set [4] has as its target T2, PDGF-BB (platelet-derived growth factor). The experiment in a line: Cy3 quenched and Cy5 enhanced with 10 nM PDGF; solution in PBS and on MSCs in PBS, PBS with Ca/Mg and medium. As to conditions: chain copies: 2 (inferred); label: 5'-Cy5; complementary strand 5'-biotin, internal Cy3.

T2 sequence (P01127 82-190, one chain of several): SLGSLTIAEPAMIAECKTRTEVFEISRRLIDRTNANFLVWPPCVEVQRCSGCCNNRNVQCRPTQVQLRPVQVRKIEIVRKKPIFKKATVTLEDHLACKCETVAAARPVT
P-selectin, sequence (P16109 42-771, one chain of several): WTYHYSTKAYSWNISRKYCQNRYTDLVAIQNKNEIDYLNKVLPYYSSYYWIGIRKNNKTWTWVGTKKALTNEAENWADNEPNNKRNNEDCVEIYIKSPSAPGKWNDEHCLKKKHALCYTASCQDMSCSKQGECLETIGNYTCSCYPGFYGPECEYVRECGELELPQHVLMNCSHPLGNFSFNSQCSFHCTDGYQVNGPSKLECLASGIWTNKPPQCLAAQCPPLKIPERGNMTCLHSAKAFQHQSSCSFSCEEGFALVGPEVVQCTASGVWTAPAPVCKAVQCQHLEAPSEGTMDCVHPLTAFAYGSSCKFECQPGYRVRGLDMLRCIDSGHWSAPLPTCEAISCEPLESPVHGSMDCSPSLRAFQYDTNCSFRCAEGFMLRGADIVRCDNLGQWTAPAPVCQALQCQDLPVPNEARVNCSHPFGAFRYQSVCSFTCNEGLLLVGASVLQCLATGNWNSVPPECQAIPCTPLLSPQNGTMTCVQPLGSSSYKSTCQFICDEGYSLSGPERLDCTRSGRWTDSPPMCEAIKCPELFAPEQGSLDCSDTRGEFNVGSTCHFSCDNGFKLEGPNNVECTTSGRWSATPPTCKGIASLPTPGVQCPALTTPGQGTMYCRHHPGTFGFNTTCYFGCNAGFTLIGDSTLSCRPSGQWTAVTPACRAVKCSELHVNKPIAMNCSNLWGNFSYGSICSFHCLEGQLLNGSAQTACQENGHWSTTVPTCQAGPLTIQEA

For the molecule GATGTAGGGACAGTCAAATGGAGTGGTTCAACCGCCCATCTTCAACAAT (ssDNA) [scrambled sequence control DNA], the binding result with L-selectin [1] is given as “no binding”.

B1: PDGF quench sensor 2 (structured_DNA)
DNA 1: AAGGCTACGGCACGTAGAGCATCACCATGATCCTGTGTGGTCTATGTCGTCGTTCG
DNA 2: CGAACGACGACATAGACCACA
With B1, the binding result in data set [2] is given as “binds”. For the molecule TAGCCAAGGTAACCAGTACAAGGTGCTAAACGTAATGGCTTCGGCTTAC (ssDNA, 3' inverted T) [L-selectin aptamer], in the data set with P-selectin, the binding result was “no binding”. Take CUCAACGAGCCAGGAACAUCGACGUCAGCAAACGCGAG (ssRNA, 2'-F on C and U) [P-selectin aptamer]: in the data set with L-selectin [3], the binding result is “no binding”.

B2: PDGF FRET sensor 5 (structured_DNA)
DNA 1: AAGGCTACGGCACGTAGAGCATCACCATGATCCTGTGTGGTCTGTGTCG
DNA 2: CGACACAGACCACA
On to B2, for which the binding result in data set [4] was “binds”.
